Experiments:
[1] = molecular target: FcγRIIIa (CD16) on Natural Killer (NK) cells (UniProt P08637); test: FACS on NK cells in PBMC, maximum binding at 20 µg/ml
[2] = molecular target: T1, extracellular domain of hIL-13Rα1 cleaved from hIL-13Rα1:hFc chimeric protein (human, UniProt P78552 22-343); test: SPR Biacore 3000, CM5 chip, HuMab captured by anti-hFcγ, cleaved hIL-13Rα1 as analyte, bivalent analyte model (ka1)
T1 construct: extracellular domain; also called Cleaved hIL-13Rα1 molecules (MW 40 kDa)
T1 sequence (looked up): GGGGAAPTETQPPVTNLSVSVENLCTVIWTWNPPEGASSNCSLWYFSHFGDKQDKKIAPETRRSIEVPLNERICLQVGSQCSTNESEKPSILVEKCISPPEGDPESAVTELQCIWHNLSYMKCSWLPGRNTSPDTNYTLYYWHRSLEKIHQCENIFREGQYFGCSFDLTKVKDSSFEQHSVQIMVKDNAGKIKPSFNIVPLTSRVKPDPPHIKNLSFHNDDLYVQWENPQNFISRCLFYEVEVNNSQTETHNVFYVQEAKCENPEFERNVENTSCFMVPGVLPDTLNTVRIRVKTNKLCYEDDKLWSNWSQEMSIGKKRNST
Procedure: (§1) In these experiments, the affinity of the original IgG1 derived from hybridoma was compared with the affinities of the recombinant variant IgG1-Ala-Ala. For interaction analysis, a Biacore 3000 instrument was used. Running and reaction buffer was HBS-P (10 mM HEPES, 150 mM NaCl, 0.005% polysurfactant P, pH 7.4) at 25° C. Capturing antibody molecules (anti-hFcγ) were amine-coupled at a concentration of 20 μg/ml at a flow rate of 5 μl/min for 20 minutes. HuMabs were injected at concentrations of 10 μg/ml at a flow rate of 10 μl/min for 1 minute. Cleaved hIL-13 Rα1 molelcules (analyte) were injected for five minutes at eight concentrations between 1.56 nM and 200 nM and washed with HBS-P for five minutes. Regeneration of the surface was accomplished by two injections of 100 mM HCl for 1 min each. The chip, assay format and sequence of injections and kinetic data correspond to the description in Table 4. Kinetic data were calculated by fitting kinetic data to a bivalent analyte binding model.

[3] = molecular target: T1, extracellular domain of hIL-13Rα1 …; test: SPR Biacore 3000, CM5 chip, HuMab captured by anti-hFcγ, cleaved hIL-13Rα1 as analyte, bivalent analyte model (kd1)
Procedure: as §1

FcγRIIIa (CD16) on Natural Killer (NK) cells, sequence (P08637 17-254 limits assumed): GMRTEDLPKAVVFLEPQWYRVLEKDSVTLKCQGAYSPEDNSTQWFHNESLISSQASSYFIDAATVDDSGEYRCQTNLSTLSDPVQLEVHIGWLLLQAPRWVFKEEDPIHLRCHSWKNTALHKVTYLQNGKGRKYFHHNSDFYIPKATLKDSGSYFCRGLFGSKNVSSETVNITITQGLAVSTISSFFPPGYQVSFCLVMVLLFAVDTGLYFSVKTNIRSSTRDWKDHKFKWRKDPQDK

kon [2]: 133000 M⁻¹ s⁻¹
koff [3]: 0.00036 s⁻¹
B1: HuMab LC5002-005 (antibody, V domains shown)
VH: EVQVLDSGGGLVQPGGSLRLSCTASGFTFRLYTMSWVRQTPGRGLEWVSGISGSGLSTYFADSVKGRFTISRDNSKNTVYLQMNSLRAEDTAVYYCAKEGDWIYFDSWGQGTLVIVSS
VL: DIQMTQSPSSLSASVGDRVTITCRASQGISSWLAWYQQKPEKAPKSLIYAASSLQSGVPSRFSGSGSGTDFTLTISSLQPEDFATYYCQQYNSHPPTFGQGTKLEIK
notes: Only the variable domains are tied to this antibody; also called hu-MAB<h-IL-13Ralpha>LC.5002-005 (DSM ACC2711)
Bmax (MFI) [1]: 581 MFI
